± gives the standard deviation.
Experiment: protein stability index of a GFP-peptide fusion (GPS, HEK-293T) (PSI 1-6); higher = more stable
[1] = treatment: DMSO, c terminus: a fixed tail appended
[2] = treatment: MLN4924 1 uM, 8 h, c terminus: a fixed tail appended
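Also: 24-mer peptide tiles fused after GFP, lentivirally expressed, FACS-sorted into six equal bins by GFP/DsRed ratio, decoded by Illumina sequencing, PSI is the read-weighted mean bin number.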

Sequence | protein stability index [1] | protein stability index [2] | protein stability index (treatment: DMSO, c terminus: native) | protein stability index (treatment: MLN4924 1 uM, 8 h, c terminus: native)
EKKESLGAAQEALSIQLQPKETQP [ZNF232] | 5.35 ± 0.35 | 5.5 ± 0.19 | – | –
FKPVVAAQKISKGADPKSVVCAFF [ZC3H15] | 2.32 ± 1 | 2.81 ± 1.5 | – | –
LIYASYFALIAVVFLASGAVSVMK [SLC19A2] | 2.95 ± 0.27 | 3.44 ± 0.43 | – | –
TDLEMQIESLNEELAYMKKNHEEE [KRT13] | 5.4 ± 0.16 | 5.433 ± 0.051 | – | –
VAQTGILWLLMNNCFLNLSPRKP [GAGE1] | – | – | 2.71 ± 0.17 | 2.82 ± 1.2
LLLGTAYSFYLFHPLAYGMVGPLA [POMT2] | 3.32 ± 0.18 | 3.18 ± 0.59 | – | –
SHRFPEDHDPTIEDAYKIRIRIDD [RIT1] | 3.98 ± 0.19 | 4.28 ± 0.31 | – | –
KSLEGDLEDLKDQIAQLEASLAAA [LMNB1] | 4.48 ± 0.23 | 4.23 ± 0.44 | – | –
QQSQGWVHYMIHEPEPHILLFRRP [CKS1B] | 2.11 ± 0.35 | 1.96 ± 0.22 | – | –
RDASDPLAGAALEPAGGGRSREAR [SMAD6] | 5.39 ± 0.19 | 5.44 ± 0.2 | – | –
ITESYQTLHPISSEELLSLKYEND [ETS1] | 4.81 ± 0.095 | 4.85 ± 0.22 | – | –
EAGSAGHVEVARLLLENGAGINTH [ANKRD17] | 4.11 ± 0.36 | 4.25 ± 0.26 | – | –
AEKRQIGDQEGPRPARSTLDELLG [FBF1] | 4.64 ± 0.22 | 4.93 ± 0.1 | – | –
QYYRTIEELQNKILTATVDNANIL [KRT17] | 2.22 ± 0.2 | 2.23 ± 0.2 | – | –
EEKEAWYREESDSLGQDLRRLRQE [DAPK3] | 5.28 ± 0.31 | 5.35 ± 0.17 | – | –
LEHGADPTVKDLIGGFTALHYAAM [ASB7] | 2.5 ± 0.45 | 2.54 ± 0.38 | – | –
VTEFILLGLTQNPEGQKVLFVTFL [OR4A15] | 2.96 ± 0.44 | 3.27 ± 0.29 | – | –
PKPCAGNQGTQITVEDLFYNIATR [MLH1] | 2.85 ± 0.32 | 2.97 ± 0.41 | – | –

Sequence | protein stability index [1] | protein stability index [2] | protein stability index (treatment: DMSO, c terminus: native) | protein stability index (treatment: MLN4924 1 uM, 8 h, c terminus: native)
TLPVSGNLLDVYSSQGVATPAITV [TFE3] | 2.58 ± 0.24 | 2.73 ± 0.27 | – | –
SCAGGRLFQQSCPTGLVFSNSCKC [CHIT1] | 2.98 ± 0.17 | 3.05 ± 0.24 | – | –
LILELVSGGELFDFLAEKESLTED [DAPK3] | 1.94 ± 0.18 | 2.49 ± 0.43 | – | –
NMCMGRTSRGKLGGQDSFESIESY [ETS1] | 3.612 ± 0.034 | 3.72 ± 0.49 | – | –
ESKDQGKTLALARTMDIPRSVQNF [ALDH8A1] | 4.01 ± 0.15 | 4.18 ± 0.23 | – | –
QGMEGIKVFLHERELWLKFHEVGT [TBX5] | 2.2 ± 0.14 | 2.17 ± 0.23 | – | –
AVIGNFLYVVGGQSNYDTKGKTAV [KLHL13] | 2.38 ± 0.73 | 2.24 ± 0.67 | – | –
TGWFGGGFTSYLGFGDEDTGLELI [MIA2] | 2.07 ± 0.35 | – | – | –
KAEILESVIKNYEDHFPLLFSEAS [MAGEA10] | 3.06 ± 0.38 | 3.19 ± 0.51 | – | –
IKCFHEIITIGYNVYHSYDLPWFR [CDS2] | 2.21 ± 0.12 | 2.31 ± 0.33 | – | –
LDNCVEVGRIANTYNLTEVDKYVN [KLHL13] | 4.12 ± 0.17 | 3.94 ± 0.23 | – | –
ELIRNIQELLKRTIMQAVSQIRLN [TEKT4] | 3 ± 0.46 | 2.77 ± 0.53 | – | –
DERVLENVEHYQELKKMVQQSDLG [ALG2] | 4.95 ± 0.38 | 4.8 ± 0.28 | – | –
MMRGLSYSLTTSSTHKSSLCKVEI [RAB40A] | 2.31 ± 0.59 | 2.28 ± 0.46 | – | –
VKVPTTLAEYCIKTKVPSNDNSSD [UBE2R2] | 4.41 ± 0.21 | 4.63 ± 0.17 | – | –
PISEKAKDLILRFCIDSENRIGNS [STK38L] | 2.04 ± 0.47 | 2.05 ± 0.41 | – | –
EDGIHTLTCALMLLNTDLHGHNIG [PSD2] | 2.78 ± 0.5 | 2.75 ± 0.36 | – | –
IKEAKEQHPDMSVTKVVVHKETEI [EPB41L3] | 5.23 ± 0.14 | 5.02 ± 0.21 | – | –

From the supplement of paper PMC10567573
